{"source": "patent US4125375A", "about": "“Separation of solid and liquid components of mixtures” (National Research Development Corporation, priority 1975, dated 1978)", "molecules": {"B1": {"name": "^125 I-BTG: radioiodinated BTG tracer of the radioimmunoassay (protein, UniProt P02775 48-128, looked up)", "Beta-thromboglobulin": "GKEESLDSDLYAELRCMCIKTTSGIHPKNIQSLEVIGKGTHCNQVEVIATLKDGRKICLDPDAPRIKKIVQKKLAGDESAD", "modifications": "Beta-thromboglobulin 125I label", "notes": "radioiodinated BTG tracer of the radioimmunoassay"}, "B2": {"name": "platelet β thromboglobulin (protein, UniProt P02775 48-128, looked up)", "Beta-thromboglobulin": "B1 Beta-thromboglobulin", "modifications": "Beta-thromboglobulin", "notes": "standard BTG of known concentrations"}}, "system": "antibody to BTG coupled to Sepharose 4B", "test": "Radioimmunoassay for platelet β thromboglobulin (BTG), Sepharose 4B-coupled antibody separated by sucrose layering", "format": "binding", "procedure": "After primary incubation with ^125 I BTG, 1 ml aliquots of standard BTG of known concentrations in the range from 0.2 to 25.6 µg/ml are incubated in 75 × 17 mm sample tubes with an antibody to BTG coupled to Sepharose 4B. After incubation the Sepharose 4B and supernatant are separated by the method of the invention as follows.\n1 ml of diluent is added to each sample tube followed by 6 ml of 10% w/v sucrose in water. The sucrose solution is added over a period of about 15 seconds through a stainless steel probe by means of a peristaltic pump. The outlet of the probe is positioned about 0.5 cm from the bottom of the sample tube, and the sucrose solution forms a discrete layer beneath the incubate. In this way the sucrose addition is carried out in a substantially non-turbulent manner. The sample tubes are then left to stand for about 60 minutes during which time the Sepharose 4B together with bound BTG settles out of the incubate into the sucrose solution forming a deposit at the bottom of each tube.\nEach sample tube, in turn, is then placed in an auto-γ counter (Wallac Instruments Ltd) modified as shown in FIG. 1 and counted for a period of 49.9 seconds (this being the period required to yield 10,000 counts from the total amount of ^125 I-BTG added to each tube). The sample tubes are then left to stand for a further 16 hours, and each sample tube is again counted. The results obtained are given in Table I, dividing the counts obtained by 100 giving the results in terms of the percentage of the total ^125 I-BTG which has been bound in each case.\nWith reference to FIG. 1 the γ-counter has a well type detector into which the sample tube 1 enters. The detector is modified by placing a 2.5 cm length of plastic tube 2 in the bottom of the well and adding an annular disc 3 of lead screening material beneath customary annular plastic disc spill shield 4. In such an arrangement the source which is to be counted, the bound ^125 I BTG linked to the deposit of Sepharose 4B 5 at the bottom of the tube 1, is well within the detector. The free ^125 I BTG present in the 2 ml layer of aqueous incubate 6 is separated from the detector by the intervening 6 ml layer 7 of 10% w/v sucrose solution, and also the detector is shielded to a large extent against stray radiation from the free fraction by the disc 3 of lead screening material. For all intents and purposes the detector \"sees\" only radiation from the bound and not from the free fraction.", "key": {"[1]": {"conditions": "0 μg standard BTG, A after 1 hr. standing"}, "[2]": {"conditions": "0 μg standard BTG, B after 17 hrs. standing"}, "[3]": {"conditions": "Controls without antibody, A after 1 hr. standing"}, "[4]": {"conditions": "Controls without antibody, B after 17 hrs. standing"}, "[5]": {"conditions": "0.2 μg standard BTG, A after 1 hr. standing"}, "[6]": {"conditions": "0.2 μg standard BTG, B after 17 hrs. standing"}, "[7]": {"conditions": "0.4 μg standard BTG, A after 1 hr. standing"}, "[8]": {"conditions": "0.4 μg standard BTG, B after 17 hrs. standing"}, "[9]": {"conditions": "0.8 μg standard BTG, A after 1 hr. standing"}, "[10]": {"conditions": "0.8 μg standard BTG, B after 17 hrs. standing"}, "[11]": {"conditions": "1.6 μg standard BTG, A after 1 hr. standing"}, "[12]": {"conditions": "1.6 μg standard BTG, B after 17 hrs. standing"}, "[13]": {"conditions": "3.2 μg standard BTG, A after 1 hr. standing"}, "[14]": {"conditions": "3.2 μg standard BTG, B after 17 hrs. standing"}, "[15]": {"conditions": "6.4 μg standard BTG, A after 1 hr. standing"}, "[16]": {"conditions": "6.4 μg standard BTG, B after 17 hrs. standing"}, "[17]": {"conditions": "12.8 μg standard BTG, A after 1 hr. standing"}, "[18]": {"conditions": "12.8 μg standard BTG, B after 17 hrs. standing"}, "[19]": {"conditions": "25.6 μg standard BTG, A after 1 hr. standing"}, "[20]": {"conditions": "25.6 μg standard BTG, B after 17 hrs. standing"}}, "note": "Several values for one entry are separate records, joined by “and”; a condition that tells them apart may be missing. Equal entries are not always repeated."}
{"molecule": "B1", "values": [{"measurement": "% bound (of total ^125 I-BTG)", "setting": "[1]", "value": 45.7, "unit": "%"}, {"measurement": "Counts (in 49.9 sec)", "setting": "[1]", "value": "4617 counts and 4492 counts and 4581 counts and 4599 counts"}, {"measurement": "% bound (of total ^125 I-BTG)", "setting": "[2]", "value": 45.1, "unit": "%"}, {"measurement": "Counts (in 49.9 sec)", "setting": "[2]", "value": "4584 counts and 4474 counts and 4503 counts and 4496 counts"}, {"measurement": "% bound (of total ^125 I-BTG)", "setting": "[3]", "value": 1.5, "unit": "%"}, {"measurement": "Counts (in 49.9 sec)", "setting": "[3]", "value": "133 counts and 180 counts"}, {"measurement": "% bound (of total ^125 I-BTG)", "setting": "[4]", "value": 1.5, "unit": "%"}, {"measurement": "Counts (in 49.9 sec)", "setting": "[4]", "value": "160 counts and 149 counts"}]}
{"molecule": "B2", "values": [{"measurement": "% bound (of total ^125 I-BTG)", "setting": "[5]", "value": 32.3, "unit": "%"}, {"measurement": "Counts (in 49.9 sec)", "setting": "[5]", "value": "3061 counts and 3409 counts"}, {"measurement": "% bound (of total ^125 I-BTG)", "setting": "[6]", "value": 31.3, "unit": "%"}, {"measurement": "Counts (in 49.9 sec)", "setting": "[6]", "value": "3110 counts and 3154 counts"}, {"measurement": "% bound (of total ^125 I-BTG)", "setting": "[7]", "value": 27.2, "unit": "%"}, {"measurement": "Counts (in 49.9 sec)", "setting": "[7]", "value": "2657 counts and 2784 counts"}, {"measurement": "% bound (of total ^125 I-BTG)", "setting": "[8]", "value": 27.3, "unit": "%"}, {"measurement": "Counts (in 49.9 sec)", "setting": "[8]", "value": "2059 counts and 2816 counts"}, {"measurement": "% bound (of total ^125 I-BTG)", "setting": "[9]", "value": 22.0, "unit": "%"}, {"measurement": "Counts (in 49.9 sec)", "setting": "[9]", "value": "2117 counts and 2286 counts"}, {"measurement": "% bound (of total ^125 I-BTG)", "setting": "[10]", "value": 20.9, "unit": "%"}, {"measurement": "Counts (in 49.9 sec)", "setting": "[10]", "value": "2059 counts and 2129 counts"}, {"measurement": "% bound (of total ^125 I-BTG)", "setting": "[11]", "value": 15.1, "unit": "%"}, {"measurement": "Counts (in 49.9 sec)", "setting": "[11]", "value": "1469 counts and 1552 counts"}, {"measurement": "% bound (of total ^125 I-BTG)", "setting": "[12]", "value": 14.5, "unit": "%"}, {"measurement": "Counts (in 49.9 sec)", "setting": "[12]", "value": "1451 counts and 1447 counts"}, {"measurement": "% bound (of total ^125 I-BTG)", "setting": "[13]", "value": 10.4, "unit": "%"}, {"measurement": "Counts (in 49.9 sec)", "setting": "[13]", "value": "1103 counts and 986 counts"}, {"measurement": "% bound (of total ^125 I-BTG)", "setting": "[14]", "value": 9.9, "unit": "%"}, {"measurement": "Counts (in 49.9 sec)", "setting": "[14]", "value": "979 counts and 1001 counts"}, {"measurement": "% bound (of total ^125 I-BTG)", "setting": "[15]", "value": 7.1, "unit": "%"}, {"measurement": "Counts (in 49.9 sec)", "setting": "[15]", "value": "706 counts and 721 counts"}, {"measurement": "% bound (of total ^125 I-BTG)", "setting": "[16]", "value": 6.6, "unit": "%"}, {"measurement": "Counts (in 49.9 sec)", "setting": "[16]", "value": "650 counts and 665 counts"}, {"measurement": "% bound (of total ^125 I-BTG)", "setting": "[17]", "value": 4.8, "unit": "%"}, {"measurement": "Counts (in 49.9 sec)", "setting": "[17]", "value": "465 counts and 495 counts"}, {"measurement": "% bound (of total ^125 I-BTG)", "setting": "[18]", "value": 4.5, "unit": "%"}, {"measurement": "Counts (in 49.9 sec)", "setting": "[18]", "value": "440 counts and 458 counts"}, {"measurement": "% bound (of total ^125 I-BTG)", "setting": "[19]", "value": 3.5, "unit": "%"}, {"measurement": "Counts (in 49.9 sec)", "setting": "[19]", "value": "346 counts and 357 counts"}, {"measurement": "% bound (of total ^125 I-BTG)", "setting": "[20]", "value": 3.3, "unit": "%"}, {"measurement": "Counts (in 49.9 sec)", "setting": "[20]", "value": "337 counts and 321 counts"}]}
